Measured values as given in the domain aggregation screens of Martell et al. (2025).

Test: soluble fraction after stress (log2 fold change); higher = more stays soluble; pooled small domains, quantitative proteomics
Conditions: stress: 50 degC
Summary of the method: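 Custom libraries of small protein domains were pooled and measured in a high-throughput format, with quantitative proteomics as the read-out. Each library was stressed at 50°C. The value is the log2 fold change in the amount of each protein that stays soluble after stress, used as a measure of aggregation propensity; higher values mean more of the protein stays soluble.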

Row | Sequence | soluble fraction (log2)
1 | HMIKITLGWVISVRRHDLGYTQHKMARAVGISDLTVSRIESDDGITPDNNTLRKIAEYLKIDYNSLLTLK | -1.73
2 | HMPLDYNELRSISPKAARQAILQILAANKGNVSATAKLLGVSRKTVYKAMHKKASGNLDDTSRAPK | -0.851
3 | HMQGEDEILKIHEALEELAQIDARLVRVVEMRYFVGLSNQEIADSLGVTTRTVERDWEKARTFLFNALHP | -1.4
4 | HMVNDDTIAATEAEILALLADKHRHHITELNSIRRPYEQIDAALSSLINEEKIFQEDGMLFV | 0.144
5 | HMKILKQLEAIIEKEGLNESAKQFYLREISELDKEKQQEIINLVDKMEQAGFKNNLASAFSEVTEDIPQF | -0.0195
6 | HMQAPIFMNETDGKWYFREKYLNDNHEIAYRVHPEGYDQMEDALRNSVNALNEFAAEMKELRKQV | -0.0683
7 | HMNPASVLDGLKITSFSPTRAIVAGPGGSRIVFDNEAVVLGGIEWDVHIQRNGIEFTSQGQTVLLLFDRS | -1.21
8 | HMGYKDIDKLSGVDLAIYRFIVEHDEQIPYMRVRELARGAHVSNSSVMRFIRKIGYDSFPEFKVSLRS | 0.0102
9 | HMEKPYTPPANLNEIQSYEELSKAVQYYNKVKDAATTDADRLKAQQSIDTLEDMRKAWDAASST | 0.072
10 | HMGRLNMRRIRDVLRLKFGQGLSERQVAASLGLSKTSVGTYLHRARQAGLTWPLPQGLDDDGLELLLFP | -1.29
11 | HMSIGLEGFVGKLGISTSDLRPSGWGEFDAKKLFVVTEGEFVDRKEKIEILSVDGNRILVRKIS | -0.751
12 | HMTYSSESVRYRIKSLIDNETIDEILSDDKIVNILKSQGIDVARRTVAKYREAMGLASSIQRRREKKSA | -0.375
13 | HMALWFDEWKKYQDTIASADLLPDKAERDALIAQAEDRFNYWMDIYPRSASLNHSFDDLYEEHRRKIE | -0.75
14 | HMRIQTVDYNTFISMVEDGKVDAAEIQQQENRILFSDQDQKVYKTAMVPDDDLTQRLLDAGVSTNG | 0.274
15 | HMEDNYYENKINYLFGYLDEADKEISVNSILDFHLAHRTNPEFVFEPKKNTNPLIWKYLSNSNLLY | -0.0177
16 | HMNGEAQTMYVTARTLNVRKGPGTSYAKAGTLSRGTAVQVVGFSGNWAKLSNGYYVSTSYLAKI | -1.32
17 | HMRGGWESLTDREREIAVLAAEGHSNRTIASTLFISDRTVQSHVSRALRALGVDSRTGIPSLVTTATR | -0.0688
18 | HMKFNLWLSEKLKKLGLTQRKLAEQAGVSPATVSRWLSGEFEPDLTNLRKINQVLGVPERELFLQLGL | 0.154
19 | HMGEEIRTWTDAQGRKIEARMSMLDGDQVLLELKDGRKIPYPLAKLSADDAHYARHFASASASD | 0.0254
20 | HMGVMTGAEFVGNTVASVERNLIIDTLKHTMGNRTTAANILGISIRTLRNKLKQYQNEGFDIPE | -0.703
21 | HMTNATVGQIKKLARASILYGNSNLSGNRYTYKANTTVTILQNISSNVDKIRVNVTGRVAYIDNSNYSSST | -3.56
22 | HMNTVSVGNLGLSVRAVNALKQAGIDTYDKLQELSWEELLLIPKLGQVTAAEIYRFITSYKKG | -0.552
23 | HMHMKTIEWDSLVLIMYKDMKYLKRINEGQSFHGKGGMLNYADLIGKTYGIRFGQYEIFEPSLEDIVMYG | -0.126
24 | HMILKQTHIVQELTGPIRLQEYGVGIFQQISTKSALKKALKKNQITVDGVVGSTATFIKGGEIIIYHVTE | -2.75
25 | HMKRGDAYASEMIARLKEAHLIVMEGTLYPLLTRLKNDGLLSYRWEESTQGPPRKYYSITPVG | 0.424

Row | Sequence | soluble fraction (log2)
26 | HMITASNYFIEVERIGIETLPETLKKGHDLVVKSTSNGTNWANYQTSEGIKKVIDLYFQKLNEYANTV | -0.749
27 | HMTTGTVKWFNDAKGFGFITPDDRSVDVFVHYSNIVGQSGRRTLMEGERVEYEAIEGPKGPQATDVARA | -0.304
28 | HMKVSKNKIVKGMGFHHVALKAVDFDASFKFYTEGLGMKFYTSWGEGNGKIAMLDLGDGGILELFA | 0.0801
29 | HMTTAGTAIVQTGNSGKLNLREQAYANAGILGRYSNGTAVTVLQKGAAWSYVEVKGQKGYMMSKFLKFTS | -0.0681
30 | HMTASSYMGMQLGRLEELLKKEVLSLSEKTELKDLISDFDKIPEVVSPKIIGRYLQLKNQHFAKINA | -0.0763
31 | HMTINPFSTLAVRELEILHYLLNGHRTKEIATNLGLKMNTVSTIKSNIFEKVKADSFTHLLQLAHVHQIS | -0.888
32 | HMYNNDEIEKIQTMYNAIYQLNDIEKALIMLFLEDKSYKEIAEIMGISEGNARIKMMRTKDKLKNLISKN | -0.369
33 | HMAMDYEGFKKSVYALTSIDLNAYKERQMKRRIDTLIAKNKYNGYEDYTAAIKKDKALFEEFVNYLTIN | -0.284
34 | HMKRKAIDQSWQPDKEAIEILSKAGVNEEFIKEEIPEFILYWSEKGEESDTWNSKFIAQVRRQWAKTQH | -0.0567
35 | HMVVPSNPDELKGSFSLAEVASGYGLEVAAILEKAGWPADTDPNVKMRDAANAIGRDSTDIRNAVKALLKS | -0.0505
36 | HMNLGNLLKIYRKNSLLTQQQVADALNINRTTYTYYETGKTEPSIDTLHKLIKIFGITYDDLL | -2.7
37 | HMTRQPSAKEHAVLTAVKEGLRRDGRAPTVRALADMTGAASTSTVQRRISALIDLGLLRRTDGTLEVVE | -0.000402
38 | HMYPATGTVVTAGGHLNMRSEPDRSGAILARIPNGTALTLTGKNGDWYAATYAGRSGYVSAQYISLS | -0.0468
39 | HMDSAFVSDIRDAFDEAGVDSYRFFGTHSFKRGGVQLYRLLGVSDQEIKERGHWQTFSAYFAYVQA | 0.218
40 | HMSVIETLLSDREREVLTHLVNGYDAKRIAEITGISTLTVRKHIANIYTKLHVNSKAQVISMAHKNKWF | -0.657
41 | HMNTVAKELATQATQAKKRAFLDAYAETGIIKRAAEIAGIERKSHYLWLEKDPEYVEAFKSAGEQ | 0.301
42 | HMSKRDDLLDQASEWLAKLDRDLTVVEERELKAWLGESAAHRETFIQMAKLWDKMESLSRLTDL | -0.397
43 | HMGQELTMPDLKSMSRSNAEEKLKKMGLKLGAVFEENAKEPAGTVINQDPRSGSKITKGQTVDITVSLGEK | 0.131
44 | HMDLKENQHILQISNKGVQMGNVLKDLIIQTLNITNGNQIKAAKLLAISRAKLRYRIEQLGINISGKNI | -0.215
45 | HMGLNVSYRMDGENVVETIIFSGATMIRTVTPTGTMTIKTIENGSTSTAKVNADYSVYKKIYEAQY | -2.59
46 | HMSQDINVFIKTNPENATIIWDGESKGTNGIFKSNAGAHRLRIEMQGYESIDQDIQVSDKQFSFEYNLKKE | 0.152
47 | HMSSGLLTVQEQRILEHLANGERNGDIAGRLHISEGTVKWHLHNMYRKLDAATRTQAVARARALRL | -0.109
48 | HMGNQALSSVLSDIAGIGPVKTKELLRVYPDLDSLRQAPVEEVAKVKGIGRQLAQKIHDHFSSR | 0.189
49 | HMIDFDEQGNLWVHEMGPRHGDELNLIEKARNYGYPTVSQGDHYSGVKISNHEDIPIFKSPEKAWVPAISP | -0.0541
50 | HMNSYKGELLVDDKNIRLDLYLFNQFNFFSRTKIKNYILKGNVLVNNNKTSPSYILKGSEKIYYDFSVS | -1.2

Row | Sequence | soluble fraction (log2)
51 | HMDGYTVYTNWGSDTNVARSDQQIQSQIPQLSGATIVGVWTKPIATGGTSYKIRYRTNSGAFTEIDVDQ | -0.105
52 | HMFEDYLRMKGLSIVSFSKQTGIPISTLRNLNKIRYDKWKIRYLEELSNVLNKTIQEIIEELKNMG | -2.32
53 | HMNPDDEMLLTYLTKLLVDKQFIVNSNDIFEYILRRVDRTYDGIYDIVSKLDVLSLEKKRQLTIPLIKEI | 0.0226
54 | HMTQHDIVPLMLKMVDVLTQFVELDIPFLQQERQTRLAALNAMMGRADVSLAEKYRRIMEAYQVETEYG | -0.0938
55 | HMEVGDTYLGKVTRVSSFGAFIEVLPGKEGLMRQNDAGEGGMPEVGDEVMVRVMEVDHLGRINLSGKLDD | -0.0268
56 | HMVLMPIDALRGSSSSSEMRIAAVKFSPSKGWYFSLQERSDEGSSYYEQKVASDGSVSERVKVR | -0.561
57 | HMKTTKRERARAKLIQLLENEDRPAKEIYAGLGDIGVGSRTVEKVKKELQVTTYRSGGSWYWSLPKP | -0.169
58 | HMQKTVLAASVYERMKERIMDQYYPPGERLNIDALAIDLAVSPTPIREALARLAAERLITFEAYKGYRVSP | -1.87
59 | HMTTYTGVVTGSGVNVRSGAGTSYPVVGSKTMGDVVTITETVSADGMIWGKIDIGWISMNYVRM | -0.75
60 | HMSEHLTLVVSDEDAGHRVDQFLVSRLAHMTRSQIQKLIKDGQVTIDTKLVRASTTVHTDNIVTIEFPPAV | -0.505
61 | HMPGTEAQDGEVLLDALRRIHPDSSTGTLRRMLTQGRVQVDGTTVHAAKAELTSGQHVEVVAR | 0.0101
62 | HMTALSAREHEVLQLITRGYTADEIAAMLQISRHTALTYVRRIYSKLKVNSKAEAIFEVRQR | -0.577
63 | HMNYGDVIEGQIMHVDRDELLVDIGSKSEGIIPAREFSTLTDEERAALSVGDHVLVFVVQAENQEGQAV | 0.0712
64 | HMEGSLQEDKVKEYQDRFKEELSNDLNTANSITVLYDLIKDDTLNGTTKRYLIEDFDKILSLDLIKE | 0.0632
65 | HMAMTNEEREALISEIKQTVNNSIDLKKDISDTEIKEAITQAVFERSEKSYLSIAEKQDIITAVFNSMR | 0.0202
66 | HMFAQDQLFKKDNSKVDVKILEINTTEIKYKLFTYQDGPTITVAKKDVALIIYQNGVHEVIT | -2.15
67 | HMAPNVEENSKLIGEIGMTLTPLRPSGIATINNRRVDVVSNGDFIDQDERVMVKRVQGARVVVIPV | 0.109
68 | HMGEPTLTIRVVSYNPQSGEMVVVARDPLSGRYALATLNVRTGAGQMIGPQGELLPIENFALGS | -0.985
69 | HMVQMKIRAYELEPNDFFIKQNMTYRVMRIQNGMIYAKHLLNSTPITFGAKSMEFVLWTGKYS | -2.36
70 | HMTELLTPKQRQVFELALREGYYDVPRRTSITEMARLLGVAKSTLSAQMHRMEATVMSTFAEEIRKQ | -1.74
71 | HMYSKQRELIMEAVFKNRVHPTAEYVYKLLKKDHPELSLGTVYRNLNYWAENNMLKKINVPGGSDRFDGT | -0.00987
72 | HMKAAQDQDQAATLLQKATGVNQDQAKLAATVLFKEQSVTPIRQAIASGDYYQAYQDAKSLQQQ | -0.144
73 | HMNASITVPDVRNLTVKQASEQLLASGFTPIPYAATKDGVGNDIVYAQDPPPSVLARSGDQITITYNPA | 0.0329
74 | HMKPRVTVVTLGVDDLERAVRFYAEGLGFPTEGIVGREFEFGAVAFFDMQPGLRLALWPRRSLAHDSGLP | -0.306
75 | HMEDIKHVVANNIKKYRKEERLTLQQLSYLTGVSKTMLNQIETEKSSPSITILWRISSGLKIPLSKLISSP | -1.61
